In experiment [1] the target is T1, Human GPA33 on GPA33+ colorectal cancer cell lines (Colo 205, LS 174T, SW 1222) (human, UniProt Q99795 22-319).
T1 construct: Endogenous GPA33 on human colorectal cancer cell lines; also called surface human GPA33; GPA33+ tumor cell lines
T1 sequence: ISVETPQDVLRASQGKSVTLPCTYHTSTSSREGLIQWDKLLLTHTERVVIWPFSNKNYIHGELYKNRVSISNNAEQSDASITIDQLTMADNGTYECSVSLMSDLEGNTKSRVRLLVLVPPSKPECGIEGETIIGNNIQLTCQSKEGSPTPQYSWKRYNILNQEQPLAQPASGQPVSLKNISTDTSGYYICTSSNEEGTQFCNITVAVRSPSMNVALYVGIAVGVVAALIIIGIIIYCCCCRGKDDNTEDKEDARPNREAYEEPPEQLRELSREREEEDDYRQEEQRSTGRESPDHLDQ
As to the kind of experiment: FACS titration on SW1222 cells, geometric mean MFI [Cont.].

Experiment [2] concerns the target T1, Human GPA33 on GPA33+ colorectal cancer …. As to the kind of experiment: FACS titration on Colo205 cells, geometric mean MFI.
Experiment [3] has as its target T2, Human GPA33 (recombinant protein, Novoprotein) (human, UniProt Q99795 22-235).
T2 construct: Bought recombinant protein immobilized on a CM5 chip; also called GPA33 antigen; tumor antigen GPA33
T2 sequence: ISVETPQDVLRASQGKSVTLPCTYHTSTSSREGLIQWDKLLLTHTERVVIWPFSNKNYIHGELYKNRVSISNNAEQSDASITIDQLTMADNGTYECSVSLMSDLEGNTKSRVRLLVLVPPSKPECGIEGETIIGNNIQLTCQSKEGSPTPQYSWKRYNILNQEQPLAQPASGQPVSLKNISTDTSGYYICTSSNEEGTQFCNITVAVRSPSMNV
As to the kind of experiment: SPR (Biacore), human GPA33 immobilised on the chip; reference row. The essentials:
(§1)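 On a Biacore system, antibodies at five concentrations (2-fold serial dilutions, highest 20 nM) were passed over recombinant human GPA33 (Novoprotein) immobilised on a CM5 sensor chip. Rate constants and the dissociation constant (KD) came from kinetic fitting of the surface plasmon resonance sensorgrams. Each KD is expressed relative to the KD of a reference molecule, as a ratio.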

Experiment [4] has as its target T2, Human GPA33 (recombinant protein, …). As to the kind of experiment: SPR (Biacore), human GPA33 immobilized on CM5 chip, two-state fit. The protocol: (§2) SPR analysis. Human GPA33 (Novoprotein, Summit, NJ) was immobilized on CM5 chips. Five concentrations of 2-fold serially diluted huA33 IgG1 or huA33-BsAbs (starting at 20 nM) were flowed over the chip using a Biacore™ T100 system (GE Healthcare, Chicago, IL). Binding kinetics of huA33 were measured at 25° C. and binding kinetics of huA33-BsAbs were measured at both 25° C. and 37° C. The sensorgrams were fitted with two state binding model for both to derive kinetic parameters.

Experiment [5] has the same target. As to the kind of experiment: SPR (Biacore), human GPA33 immobilized on CM5 chip, two-state fit, ka1. The protocol:
as §2

For experiment [6], the target named is T1, Human GPA33 on GPA33+ colorectal cancer …. As to the kind of experiment: FACS titration on LS174T cells, geometric mean MFI [Cont.].
Experiment [7] has as its target T2, Human GPA33 (recombinant protein, …). As to the kind of experiment: SPR (Biacore), human GPA33 immobilized on CM5 chip, two-state fit, kd1. An outline of the steps: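 The off-rate (kd1) came from surface plasmon resonance, with sensorgrams fitted to a two-state binding model to derive the kinetic parameters. Recombinant human GPA33 from Novoprotein was immobilised on a CM5 chip in a Biacore T100. Antibodies were flowed over at five concentrations, made as 2-fold serial dilutions starting at 20 nM. The parent IgG1 was run at 25° C, and the bispecific formats at both 25° C and 37° C.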

For experiment [8] the target is unchanged. As to the kind of experiment: SPR (Biacore), human GPA33 immobilised on the chip; KD relative to that of TC170. The essentials:
as §1

For experiment [9], the target named is T1, Human GPA33 on GPA33+ colorectal cancer …. As to the kind of experiment: FACS titration on Colo205 cells, geometric mean MFI. The source holds these as a separate data set.
Experiment [10] has the same target. As to the kind of experiment: FACS binding to SW1222 cells (GPA33+).
Experiment [11] shares this target. As to the kind of experiment: FACS titration on SW1222 cells, geometric mean MFI [Cont.]. This is another data set of the same source.
Experiment [12] shares this target. As to the kind of experiment: FACS titration on LS174T cells, geometric mean MFI [Cont.]. The source holds these as a separate data set.
Experiment [13] shares this target. As to the kind of experiment: FACS binding to Colo205 cells (GPA33+).
Experiment [14] shares this target. As to the kind of experiment: FACS binding to LS174T cells (GPA33+).

Changes are numbered by the printed parent chain. Names may count otherwise.

B1: BC015 (G3A H1L4) (bispecific antibody, human IgG1, kappa, N297A)
heavy: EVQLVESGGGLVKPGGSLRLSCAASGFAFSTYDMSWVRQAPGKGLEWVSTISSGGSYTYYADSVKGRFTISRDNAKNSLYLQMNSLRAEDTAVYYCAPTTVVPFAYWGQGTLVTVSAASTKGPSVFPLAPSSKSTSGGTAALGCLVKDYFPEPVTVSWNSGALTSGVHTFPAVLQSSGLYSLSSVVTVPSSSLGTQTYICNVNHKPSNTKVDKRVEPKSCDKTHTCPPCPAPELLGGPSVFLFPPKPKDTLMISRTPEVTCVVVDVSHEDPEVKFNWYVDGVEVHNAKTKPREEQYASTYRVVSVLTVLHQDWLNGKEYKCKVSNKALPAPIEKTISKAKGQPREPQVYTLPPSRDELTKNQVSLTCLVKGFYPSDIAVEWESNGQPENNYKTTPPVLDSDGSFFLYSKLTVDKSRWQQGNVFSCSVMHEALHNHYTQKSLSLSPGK
light: DIQMTQSPSSLSASVGDRVTITCKASQNVRTVVAWYQQKPGKAPKTLIYLASNRHTGVPSRFSGSGSGTEFTLTISNLQPEDFATYYCLQHWSYPLTFGSGTKLEVKRTVAAPSVFIFPPSDEQLKSGTASVVCLLNNFYPREAKVQWKVDNALQSGNSQEKSVTEQDSKDSTYSLSSTLTLSKADYEKHKVYACEVTHQGLSSPVTKSFNRGECTSGGGGSGGGGSGGGGSHVQLVESGGGLVQPGGSLRLSCAASGFSLTDYGVHWVRQAPGKGLEWLGVIWSGGGTAYNTALISRFTISRDNSKNTLYLQMNSLRAEDTAVYYCARRGSYPYNYFDAWGCGTLVTVSSGGGGSGGGGSGGGGSGGGGSGGGGSGGGGSQAVVTQEPSLTVSPGGTVTLTCGSSTGAVTASNYANWVQQKPGQCPRGLIGGHNNRPPGVPARFSGSLLGGKAALTLLGAQPEDEAEYYCALWYSDHWVIGGGTKLTVLG
notes: GPA33xDOTA IgG-[L]-scFv with human IgG1 constant region carrying N297A and K322A; The anti-DOTA scFv is fused to the C-terminus of the light chain; also called BC177; GPA33 BsAb-IgG (BC177)
Take B1: the EC50 in [1] worked out at 0.71 nM; in experiment [2] it was 1.04 nM; in [6], 0.39 nM. In addition, the “Fold change of KD (relative to BC015, lower is better)” value in [3] came to 1. The Kd in experiment [4] amounted to 0.118 nM. Moreover, the ka2 in experiment [4] was determined as 0.00307 s⁻¹. Besides, the kd2 in [4] was found to be 0.00177 s⁻¹. Further, the kon in experiment [5] is 4.36e+06 M⁻¹ s⁻¹. For the same molecule, in [7], the koff is 0.00141 s⁻¹.

B2: TC234 (bispecific antibody)
chain: EVQLVESGGGLVDPGGSLRLSCAASGFAFSTYDMSWVRQAPGKGLEWVSTISSGGSYTYYADSVKGRFTISRDNAKNSLYLQMNSLRAEDTAVYYCAPTTVVPFAYWGQGTLVTVSAGGGGSGGGGSGGGGSGGGGSGGGGSGGGGSDIQMTQSPSSLSASVGDRVTITCKASQNVRTVVAWYQQKPGKAPKTLIYLASNRHTGVPSRFSGSGSGTEFTLTISNLQPEDFATYYCLQHWSYPLTFGSGTKLEVKRGGGGSGGGGSGGGGSGGGGSHVQLVESGGGLVQPGGSLRLSCAASGFSLTDYGVHWVRQAPGKGLEWLGVIWSGGGTAYNTALISRFTISRDNSKNTLYLQMNSLRAEDTAVYYCARRGSYPYNYFDAWGCGTLVTVSSGGGGSGGGGSGGGGSGGGGSGGGGSGGGGSQAVVTQEPSLTVSPGGTVTLTCGSSTGAVTASNYANWVQQKPGQCPRGLIGGHNNRPPGVPARFSGSLLGGKAALTLLGAQPEDEAEYYCALWYSDHWVIGGGTKLTVLGTPLGDTTHTSGKPLDGEYFTLQIRGRERFEMFRELNEALELKDAQAGKEPGGSGGAPHHHHHH
notes: pI variant of TC170 with a single mutation; Carries the p53 SADA (tetramerization) domain; also called GPA33xDOTA SADA; pI variant of TC170
Consider B2, for which, in experiment [8], the “Fold change of KD (relative to TC170, lower is better)” value came to 0.8. For the same molecule, the EC50 in experiment [9] came out at 0.71 nM; in experiment [10] it was 2.05 nM; in experiment [11], 2.05 nM; in experiment [12], 0.21 nM; in [13], 0.71 nM; in [14] it was 0.21 nM. The Kd in [4] was 0.0122 nM. Besides, the ka2 in [4] is 0.00566 s⁻¹. The kd2 in [4] is 0.000353 s⁻¹. Besides, the kon in experiment [5] is 4.65e+06 M⁻¹ s⁻¹. In addition, the “fold change of binding EC50 (relative to TC170, lower is better)” value in experiment [10] is 1.24; in experiment [13], 0.96; in [14], 0.68. For the same molecule, in experiment [7], the koff was found to be 0.000966 s⁻¹.

B3: TC213 (bispecific antibody)
chain: B2 chain with K76A
notes: pI variant of TC170 with a double mutation in the GPA33 scFv; Carries the p53 SADA (tetramerization) domain; also called GPA33xDOTA SADA; pI variant of TC170
For B3, the “Fold change of KD (relative to TC170, lower is better)” value in [8] was 1.4. In addition, the EC50 in experiment [9] is 0.55 nM; in experiment [10], 1.05 nM; in [11] it was 1.05 nM; in experiment [12], 0.23 nM; in experiment [13] it was 0.55 nM; in experiment [14] it was 0.23 nM. Moreover, the Kd in [4] is 0.0218 nM. Besides, in experiment [4], the ka2 worked out at 0.00636 s⁻¹. Besides, the kd2 in [4] was 0.000611 s⁻¹. The kon in experiment [5] stood at 3.44e+06 M⁻¹ s⁻¹. Moreover, the figures for the “fold change of binding EC50 (relative to TC170, lower is better)” value in experiment [10], in experiment [13] and in [14] were 0.64, 0.74 and 0.74, respectively. Further, the koff in [7] amounted to 0.000857 s⁻¹.

B4: TC235 (bispecific antibody)
chain: B2 chain with K76A, K189Q
notes: pI variant of TC170 with a triple mutation in the GPA33 scFv; Carries the p53 SADA (tetramerization) domain; also called GPA33xDOTA SADA; pI variant of TC170
With B4, in [8], the “Fold change of KD (relative to TC170, lower is better)” value stood at 1.5. The EC50 stood at 0.53 nM in [9]; 1.03 nM in experiment [10]; 1.03 nM in [11]; 0.22 nM in [12]; 0.53 nM in experiment [13]; 0.22 nM in experiment [14]. In addition, the Kd in experiment [4] amounted to 0.0242 nM. Moreover, the ka2 in experiment [4] was 0.00561 s⁻¹. The kd2 in experiment [4] came out at 0.00051 s⁻¹. In addition, in experiment [5], the kon is 3.38e+06 M⁻¹ s⁻¹. Moreover, the figures for the “fold change of binding EC50 (relative to TC170, lower is better)” value in experiment [10], in [13] and in experiment [14] were 0.62, 0.72 and 0.71, respectively. For the same molecule, the koff in experiment [7] worked out at 0.000981 s⁻¹.

These data come from patent publication US20240026037A1 (Memorial Sloan Kettering, published 2024).
